According to patent publication EP2402371A1 (SANOFI, dated 2012):
Substitutions are numbered along the chain they refer to.

T1: human GPVI on the platelet surface (human, UniProt Q9HCN6 21-339)
T1 sequence (looked up): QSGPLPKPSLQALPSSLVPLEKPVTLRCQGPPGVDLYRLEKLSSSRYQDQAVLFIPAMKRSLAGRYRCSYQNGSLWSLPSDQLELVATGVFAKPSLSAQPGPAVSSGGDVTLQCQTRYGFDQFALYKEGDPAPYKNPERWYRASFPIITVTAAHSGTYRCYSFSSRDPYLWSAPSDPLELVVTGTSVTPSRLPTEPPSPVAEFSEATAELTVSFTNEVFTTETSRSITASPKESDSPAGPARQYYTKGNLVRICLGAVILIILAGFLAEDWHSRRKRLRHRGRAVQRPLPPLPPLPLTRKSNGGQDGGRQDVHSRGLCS

B1: non-humanized Fab construct based on the original clone 390 without the His-tag (Fab, V domains shown)
VH: QVQLKESGPGLVAPSQSLSITCTVSGFSLTGYGVNWVRQPPGKGLEWLGMIWGDGSTDYNSTLKSRLSISKDNSKSQVFLKMNSLQTDDTARYYCARDLPMDYWGQGTSVTVSS
VL: DIQMTQSPSSLSASLGGKVTITCKASQDINKYIAWYQHKPGKGPSLLIHYTSTLQPGIPSRFSGSGSGRDYSFSISNLEPEDIATYYCLQYANLLTFGGGTKLEIKR
B2: humanized anti-GPVI Fab VL1/VH2 (Fab, V domains shown)
VH: B1 VH with K5Q, G42S, K43R, N60Q, Q86T
VL: B1 VL with L15V, K18R, I58V, E79Q
B3: humanized anti-GPVI Fab VL1/VH4 (Fab, V domains shown)
VH: B1 VH with K5Q, G31Y, G42S, K43R, N60Q, Q86T
VL: B1 VL with L15V, K18R, I58V, E79Q
B4: humanized anti-GPVI Fab VL3/VH2 (Fab, V domains shown)
VH: B1 VH with K5Q, G42S, K43R, N60Q, Q86T
VL: B1 VL with L15V, K18R, I58V, E79Q, N93L
B5: humanized anti-GPVI Fab VL3/VH4 (Fab, V domains shown)
VH: B1 VH with K5Q, G31Y, G42S, K43R, N60Q, Q86T
VL: B1 VL with L15V, K18R, I58V, E79Q, N93L
B6: humanized anti-GPVI Fab VL1/VH3 (Fab, V domains shown)
VH: B1 VH with Q1E, K5L, Q16G, N60Q, Q86R, Q106L
VL: B1 VL with L15V, K18R, I58V, E79Q
B7: humanized anti-GPVI Fab VL1/VH5 (Fab, V domains shown)
VH: B1 VH with K5Q, G42S, K43R, N60Q, Q86T, Y103E
VL: B1 VL with L15V, K18R, I58V, E79Q
B8: humanized anti-GPVI Fab VL2/VH2 (Fab, V domains shown)
VH: B1 VH with K5Q, G42S, K43R, N60Q, Q86T
VL: B1 VL with L15V, K18R, I58V, E79Q, N93H
B9: humanized anti-GPVI Fab VL1/VH1 (Fab, V domains shown)
VH: B1 VH with K5Q, G42S, K43R, N60Q, N73T, Q86T
VL: B1 VL with L15V, K18R, I58V, E79Q

The binders below were run against T1, human GPVI on the platelet surface (assay: cell-based or functional assay).

Question: For B1, which “IC50 for inhibition of collagen induced platelet aggregation (human platelet rich plasma), Test 1” value (from here on “IC50 for inhibition … Test 1”) is on record?
Answer: Its value is 1.6 µg/mL.

Question: And the “IC50 for inhibition of collagen induced platelet aggregation (human platelet rich plasma), Test 2” value (shortened to “IC50 for inhibition … Test 2”)?
Answer: The value was 6.4 µg/mL.

Question: What about the “IC50 for inhibition of collagen induced platelet aggregation (human platelet rich plasma), Test 3” value (“IC50 for inhibition … Test 3” below) of the same binder?
Answer: The value was 1.3 µg/mL.

Question: How did the “IC50 for inhibition … Test 1” value turn out when B2 was run?
Answer: The value was 2.3 µg/mL.

Question: And the “IC50 for inhibition … Test 2” value?
Answer: Its value is 2 µg/mL.

Question: And the “IC50 for inhibition … Test 3” value?
Answer: The value was 1.1 µg/mL.

Question: With B3 as the binder, how does the “IC50 for inhibition … Test 1” value read?
Answer: The value was 1.6 µg/mL.

Question: And the “IC50 for inhibition … Test 2” value?
Answer: Its value is 1.8 µg/mL.

Question: What about the “IC50 for inhibition … Test 3” value of the same binder?
Answer: The value was 1.2 µg/mL.

Question: How did the “IC50 for inhibition … Test 1” value turn out when B4 was run?
Answer: The value was 1.9 µg/mL.

Question: What about the “IC50 for inhibition … Test 2” value of the same binder?
Answer: Its value is 0.9 µg/mL.

Question: And the “IC50 for inhibition … Test 3” value?
Answer: Its value is 2.1 µg/mL.

Question: What does the source list for B5?
Answer: IC50 for inhibition of collagen induced platelet aggregation (human platelet rich plasma), Test 1: 1 µg/mL; IC50 for inhibition of collagen induced platelet aggregation (human platelet rich plasma), Test 2: 2.3 µg/mL; IC50 for inhibition of collagen induced platelet aggregation (human platelet rich plasma), Test 3: 2 µg/mL

Question: What does the source list for B6?
Answer: IC50 for inhibition of collagen induced platelet aggregation (human platelet rich plasma), Test 1: 1.7 µg/mL; IC50 for inhibition of collagen induced platelet aggregation (human platelet rich plasma), Test 2: 1.5 µg/mL; IC50 for inhibition of collagen induced platelet aggregation (human platelet rich plasma), Test 3: 1.5 µg/mL

Question: With B7 as the binder, how does the “IC50 for inhibition … Test 1” value read?
Answer: The value was 1.9 µg/mL.

Question: What about the “IC50 for inhibition … Test 2” value of the same binder?
Answer: The value was 2.3 µg/mL.

Question: What about the “IC50 for inhibition … Test 3” value of the same binder?
Answer: The value was 1.2 µg/mL.

Question: With B8 as the binder, how does the “IC50 for inhibition … Test 1” value read?
Answer: The value was 1.4 µg/mL.

Question: And the “IC50 for inhibition … Test 2” value?
Answer: The value was 2.4 µg/mL.

Question: And the “IC50 for inhibition … Test 3” value?
Answer: The value was 2.3 µg/mL.

Question: How did the “IC50 for inhibition … Test 1” value turn out when B9 was run?
Answer: The value was 1.5 µg/mL.

Question: And the “IC50 for inhibition … Test 2” value?
Answer: The value was 2.3 µg/mL.

Each binder was assayed against T2, hGPVI-hFc fusion protein (human) (assay: competition assay, GPVI-Fc pre-incubated with Fab, binding to collagen-coated plates (DELFIA), Test 2).
T2 construct: also called GPVI-Fc fusion protein; human GPVI-Fc

Question: How did the IC50 turn out when B1 was run?
Answer: The IC50 was 0.56 µg/mL.

What follows are binders tested against T2, hGPVI-hFc fusion protein (assay: competition assay, GPVI-Fc pre-incubated with Fab, binding to collagen-coated plates (DELFIA), Test 1).

Question: With B1 as the binder, how does the IC50 read?
Answer: Its IC50 is 0.49 µg/mL.

These binders were tested against T2, hGPVI-hFc fusion protein (assay: competition assay, GPVI-Fc pre-incubated with Fab, binding to collagen-coated plates (DELFIA), Test 3).

Question: For B1, which IC50 is on record?
Answer: The IC50 was 0.99 µg/mL.
